Data published in publication PMC10465574, “Chlorfenapyr metabolism by mosquito P450s associated with pyrethroid resistance identifies potential activation markers” (Scientific Reports, 2023).

T1: CYP9K1 (Anopheles gambiae, UniProt Q8T633)
T1 construct: recombinant, pCWori+ vector, E. coli membranes co-expressing An. gambiae CPR; cytochrome b5 added; with NADPH--cytochrome P450 reductase
T1 sequence (Q8T633 1-531): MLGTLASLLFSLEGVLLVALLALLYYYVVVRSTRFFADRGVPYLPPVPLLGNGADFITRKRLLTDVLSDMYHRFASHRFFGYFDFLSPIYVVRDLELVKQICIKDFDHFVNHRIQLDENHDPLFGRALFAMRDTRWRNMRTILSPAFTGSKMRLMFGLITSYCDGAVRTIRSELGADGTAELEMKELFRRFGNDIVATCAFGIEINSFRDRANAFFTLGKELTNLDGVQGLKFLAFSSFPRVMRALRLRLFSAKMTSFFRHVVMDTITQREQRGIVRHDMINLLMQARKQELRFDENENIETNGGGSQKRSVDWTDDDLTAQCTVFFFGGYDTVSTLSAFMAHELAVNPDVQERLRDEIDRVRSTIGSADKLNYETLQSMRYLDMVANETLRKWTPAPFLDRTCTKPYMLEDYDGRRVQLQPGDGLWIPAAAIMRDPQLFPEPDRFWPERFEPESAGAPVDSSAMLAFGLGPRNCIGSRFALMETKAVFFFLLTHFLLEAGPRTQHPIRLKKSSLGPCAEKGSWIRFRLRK
T1 sequence (Q86QH5 1-679 partner): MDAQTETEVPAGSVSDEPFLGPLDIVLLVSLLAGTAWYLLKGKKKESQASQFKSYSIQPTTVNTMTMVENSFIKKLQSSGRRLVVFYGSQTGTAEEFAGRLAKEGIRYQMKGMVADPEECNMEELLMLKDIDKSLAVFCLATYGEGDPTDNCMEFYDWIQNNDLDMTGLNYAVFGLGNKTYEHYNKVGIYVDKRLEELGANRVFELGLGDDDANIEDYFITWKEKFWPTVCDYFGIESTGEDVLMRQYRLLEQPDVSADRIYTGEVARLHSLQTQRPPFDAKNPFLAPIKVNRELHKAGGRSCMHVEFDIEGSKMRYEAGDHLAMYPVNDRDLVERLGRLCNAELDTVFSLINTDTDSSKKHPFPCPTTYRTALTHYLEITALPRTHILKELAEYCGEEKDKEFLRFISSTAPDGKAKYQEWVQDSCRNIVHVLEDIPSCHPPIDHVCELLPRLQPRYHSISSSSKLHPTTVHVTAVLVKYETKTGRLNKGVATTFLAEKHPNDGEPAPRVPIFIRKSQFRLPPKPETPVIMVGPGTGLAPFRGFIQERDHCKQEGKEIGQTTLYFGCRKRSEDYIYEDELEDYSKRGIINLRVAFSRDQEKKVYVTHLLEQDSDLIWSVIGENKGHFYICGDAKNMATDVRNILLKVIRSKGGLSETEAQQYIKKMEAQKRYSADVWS

T2: CYP6P3 (Anopheles gambiae, UniProt Q8T632)
T2 construct: recombinant, pCWori+ vector, E. coli membranes co-expressing An. gambiae CPR; cytochrome b5 added in metabolism assays; with NADPH--cytochrome P450 reductase
T2 sequence (Q8T632 1-509): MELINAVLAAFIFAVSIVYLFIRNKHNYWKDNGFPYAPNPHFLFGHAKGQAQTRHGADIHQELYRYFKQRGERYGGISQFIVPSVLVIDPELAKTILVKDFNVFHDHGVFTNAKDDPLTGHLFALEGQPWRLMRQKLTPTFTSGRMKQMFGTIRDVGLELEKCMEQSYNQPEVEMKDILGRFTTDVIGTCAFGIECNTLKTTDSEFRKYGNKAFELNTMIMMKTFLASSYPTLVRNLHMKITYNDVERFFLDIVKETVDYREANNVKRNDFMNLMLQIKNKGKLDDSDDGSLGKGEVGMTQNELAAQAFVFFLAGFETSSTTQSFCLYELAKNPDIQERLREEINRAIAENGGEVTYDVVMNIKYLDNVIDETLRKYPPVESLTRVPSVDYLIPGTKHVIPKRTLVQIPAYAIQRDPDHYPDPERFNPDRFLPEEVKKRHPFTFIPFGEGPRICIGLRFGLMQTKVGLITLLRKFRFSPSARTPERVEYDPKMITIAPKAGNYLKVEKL
T2 sequence (Q86QH5 1-679 partner): T1 sequence (Q86QH5 1-679 partner)

B1: CYP6P3 (Anopheles gambiae) (protein)
chain: T2 sequence (Q8T632 1-509)
notes: recombinant, pCWori+ vector, E. coli membranes co-expressing An. gambiae CPR; cytochrome b5 added in metabolism assays; with NADPH--cytochrome P450 reductase
B2: CYP9K1 (Anopheles gambiae) (protein)
chain: T1 sequence (Q8T633 1-531)
notes: recombinant, pCWori+ vector, E. coli membranes co-expressing An. gambiae CPR; cytochrome b5 added; with NADPH--cytochrome P450 reductase

Legend:
CYP9K1 = molecular target: T1, CYP9K1; test: inhibition of chlorfenapyr depletion, HPLC; format: biochemical
CYP6P3 = molecular target: T2, CYP6P3; test: inhibition of diethoxyfluorescein (DEF) fluorescent probe metabolism; format: biochemical
[1] = substrate: CCOCn1c(-c2ccc(Cl)cc2)c(C#N)c(Br)c1C(F)(F)F; test: tralopyril formation by HPLC, Michaelis-Menten fit; format: biochemical, Anopheles gambiae; conditions: NADPH regeneration system, 0.8 µM cytochrome b5, 50 mM potassium phosphate pH 7.4, recombinant E. coli membranes

Molecule	inhibition at 10 µM (CYP9K1)	IC50 (CYP6P3)	Km [1]	kcat [1]
CC1(C)C(C=C(Cl)Cl)C1C(=O)OC(C#N)c1cccc(Oc2ccccc2)c1 (stereo not drawn) [α-cypermethrin]	56.8%	16.7 µM		
CCOCn1c(-c2ccc(Cl)cc2)c(C#N)c(Br)c1C(F)(F)F [chlorfenapyr]		30.4 µM		
B1			16.32 µM	0.0285 s⁻¹
B2			10.13 µM	0.112 s⁻¹
